Patent US20140099332A1 (IMMUNOGEN, published 2014)
Several values for one entry are separate records, joined by “and”; a condition that tells them apart may be missing. Identical values can stand only once.

Experiments:
[1] = target: T1, human FolR1-Fc fusion protein (human; mouse, UniProt P15328 25-233); assay: sandwich ELISA (FOLR1 ELISA): clone coated on the plate as capture antibody, FOLR-Fc fusion titrated, format as in FIG. 1
T1 construct: The construct encodes the 233 amino acids from the N-terminal signal peptide to just upstream of the GPI linkage site; also called huFOLR1-Fc; human folate receptor 1 Fc fusion molecule; not shown: residues encoded by the Pst1 to BamHI oligonucleotide linker
T1 sequence (P15328 25-233): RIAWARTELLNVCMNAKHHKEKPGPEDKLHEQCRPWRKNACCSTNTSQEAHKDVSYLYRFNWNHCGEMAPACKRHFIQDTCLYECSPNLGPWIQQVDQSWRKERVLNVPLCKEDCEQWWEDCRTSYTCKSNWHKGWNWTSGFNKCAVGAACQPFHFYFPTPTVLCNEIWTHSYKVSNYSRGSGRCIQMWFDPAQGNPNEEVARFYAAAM
Experimental: The 40 clones were alternatively coated onto the assay plate in place of muFR1-9 in the diagram, and the resulting binding curves were analyzed shown in FIG. 5. Antibodies that contained the lowest half-maximal response (EC50) were considered to have the highest binding specificity to FOLR1, and thus were chosen as the top candidates for the assay.

FOLR2 = target: T2, FOLR2 (UniProt P14207 17-230, limits assumed); assay: ELISA on FOLR2-His antigen, antibody titrated ([Ab] (M)); positive control FR2 Ab reaches about 0.42 [left graph (FOLR2-His]
T2 construct: also called folate receptor 2
T2 sequence (P14207 17-230 limits assumed): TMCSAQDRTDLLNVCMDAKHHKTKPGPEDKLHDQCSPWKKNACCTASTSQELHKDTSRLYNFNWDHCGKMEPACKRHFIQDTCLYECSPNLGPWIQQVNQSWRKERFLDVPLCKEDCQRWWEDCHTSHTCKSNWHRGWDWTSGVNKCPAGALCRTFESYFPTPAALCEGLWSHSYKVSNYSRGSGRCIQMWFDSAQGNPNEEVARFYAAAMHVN

[2] = target: T3, human folate receptor 1 (FOLR1) on cells (human, UniProt P15328 25-234); assay: apparent binding affinity 'by both methods': flow cytometry on T47D cells and ELISA; unit M taken from the preceding value; upper end of the range given for FR1-9; flow cytometry on T47D cells and ELISA
T3 construct: also called FRA; huFolR1
T3 sequence (P15328 25-234): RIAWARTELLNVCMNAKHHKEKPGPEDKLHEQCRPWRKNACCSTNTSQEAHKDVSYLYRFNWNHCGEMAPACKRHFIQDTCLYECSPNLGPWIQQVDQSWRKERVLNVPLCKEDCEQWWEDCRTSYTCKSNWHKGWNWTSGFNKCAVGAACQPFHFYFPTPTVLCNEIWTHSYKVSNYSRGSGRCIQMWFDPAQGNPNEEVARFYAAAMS
Experimental: (§1) To assure that materials were continuously performing as expected, all antibodies were screened for binding by both ELISA and flow cytometry methods known in the art. Flow cytometry was performed using FOLR1 expressing human T47D cells cultured using in-vitro cell culture techniques known in the art. The antibodies were bound to these cells and detected indirectly using a goat anti-murine Alexa-fluor 488 detection antibody on a FACScalibur machine (FIG. 6A-B).

[3] = target: T3, human folate receptor 1 (FOLR1) on cells; assay: apparent binding affinity 'by both methods': flow cytometry on T47D cells and ELISA; unit M taken from the preceding value; lower end of the range given for FR1-9; flow cytometry on T47D cells and ELISA
Experimental: as §1

FOLR3 = target: T4, FOLR3 (human, UniProt P41439 23-245, limits assumed); assay: ELISA with FOLR3-His antigen titrated ([Ag ug/ml]); positive control reaches about 2.6 after 3 min development [right graph (FOLR3-His]
T4 construct: also called folate receptor 3
T4 sequence (P41439 23-245 limits assumed): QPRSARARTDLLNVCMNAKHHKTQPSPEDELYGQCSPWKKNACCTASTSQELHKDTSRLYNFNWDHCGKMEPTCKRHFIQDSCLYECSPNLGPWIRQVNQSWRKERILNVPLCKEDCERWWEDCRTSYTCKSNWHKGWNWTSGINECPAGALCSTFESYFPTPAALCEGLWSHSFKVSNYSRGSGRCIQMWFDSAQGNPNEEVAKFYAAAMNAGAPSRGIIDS

[4] = target: T3, human folate receptor 1 (FOLR1) on cells; assay: laser scanning cytometry on cell lines, optimal dilution 1:100
Experimental: (§2) Three cell lines with varying levels of FOLR1 expression were selected as representative of high expression (KB), low expression (OVCAR3), and no expression (A549). Unlabeled FR1-9 and FR1-13, as well as a commercial anti-FOLR1 antibody (“commercial FRA”), were titrated, and optimal titrations were determined for each of the antibodies using laser scanning cytometry (LSC) detection on the selected cell lines. […] Optimal dilutions were identified for each antibody as follows: 1:5 for commercial FRA, 1:100 for muFR1-9, and 1:200 for muFR1-13.

[5] = target: T1, human FolR1-Fc fusion protein; assay: sandwich ELISA: Mu FOLR1-13 coated on the plate, FOLR-Fc fusion titrated, detected with Hu Mov19 and polyclonal goat anti-human HRP
[6] = target: T3, human folate receptor 1 (FOLR1) on cells; assay: apparent binding affinity 'by both methods': flow cytometry on T47D cells and ELISA; lower end of the range given for FR1-13; flow cytometry on T47D cells and ELISA
Experimental: as §1

[7] = target: T1, human FolR1-Fc fusion protein; assay: sandwich ELISA (Folate ELISA): 1 ug/ml FR1-64, 1 ug/ml FR1-13-Biotin, FOLR1-Fc titrated
[8] = target: T3, human folate receptor 1 (FOLR1) on cells; assay: apparent binding affinity 'by both methods': flow cytometry on T47D cells and ELISA; upper end of the range given for FR1-13; flow cytometry on T47D cells and ELISA
Experimental: as §1

[9] = target: T3, human folate receptor 1 (FOLR1) on cells; assay: indirect flow cytometry, T47D cells, Alexa-488 goat anti-mouse
Experimental: as §1

[10] = target: T3, human folate receptor 1 (FOLR1) on cells; assay: laser scanning cytometry on cell lines, optimal dilution 1:200
Experimental: as §2

[11] = target: T5, FOLR1 (antigen of the screening ELISAs, form not stated) (human, UniProt P15328 25-234); assay: competition ELISA: serial concentrations of competing murine clone against a constant concentration of (biotinylated) muFR1-13
T5 construct: It may be the FOLR1-Fc fusion; also called the same antigen; the target
T5 sequence (P15328 25-234 limits assumed): as the sequence (P15328 25-234) above

B1: muFR1-9 (antibody, mouse IgG1, kappa, V domains shown)
VH: QVQLVESGGGLVQPGGSRKLSCAASGFTFSSFGMHWVRQAPEKGLEWVAYISSGSSTFYYADTVKGRFTISRDNPKNTLFLQMTSLRSEDTAMYYCAKELTGTFAYWGQGTLVTVSA
VL: DIVLTQSPATLSVTPGDSVSLSCRASQSINNNLHWYQQKSHESPRLLIKYASQSISGIPSRFSGSGSGTDFTLSINSVETEDFGMYFCQQSNSWPQVTFGAGTKLELKR
notes: Murine monoclonal purified from hybridoma supernatant; Capture antibody of the sandwich ELISA; also called murine FR1-9
For B1, the “EC50 (read off the curve)” value [1] was about 0.004 nM, the binding result (FOLR2) was “no binding (tested: about 10^-8 M antibody)” and the Kd [2] was at most 4 nM. For the same binder, the Kd [3] was at least 2 nM, the binding result (FOLR3) was “no binding (tested: about 2.5 ug/ml antigen)” and the “signal to background ration” value [4] was 4.07.

B2: muFR1-53 (antibody, mouse IgG1, kappa, V domains shown)
VH: QVQLQQSGPELVRPGASVKMSCKASGYKFTDYDISWVLQRTGQGLEWIGEIYPGSGRTYYNERFKGKATLTADKSSNTVYMQLSSLTSEDSAVYFCASSYYYGTNSPFAYWGQGTTLTVSS
VL: DIQMTQTTSSLSASLGDRVTISCRASQDISNYLHWYQRKPDGTVKLLVYYTSRLQSGVPSRFSGSGSGTDYSLTISNLEQEDIATYFCQQGNSLPPTFGSGTKLEIKR
notes: The full-length chains differ from the variable domains by shifted residues
B2 was tested, and the “EC50 (read off the curve)” value [1] was about 0.01 nM, the binding result (FOLR2) was “no binding (tested: about 10^-8 M antibody)” and the binding result (FOLR3) was “no binding (tested: about 2.5 ug/ml antigen)”.

B3: muFR1-62 (antibody, mouse IgG1, kappa, V domains shown)
VH: QVQLQQSGAELARPGASVKMSCKASGYTFTTYTMHWVKQRPGQGLEWIAYINPTSGYNNYNQKFKEKATLTADKSSSTAYMQLTSLTSEDSAVYYCASGGAYGRRPVDYWGQGTSVTVSS
VL: DIVMTQSQKFMSISVGDRVSVTCKASQNVGTNVAWYQQKPGQSPKTLIYSASSRYSGVPDRFTGSGSGTDFTLTISNVQSEDLADYFCHQYNSYPYTFGGGTKLEIKR
notes: Murine monoclonal; The full-length light chain differs from the VL by shifted residues
With B3 the “EC50 (read off the curve)” value [1] was about 0.01 nM, the binding result (FOLR2) was “no binding (tested: about 10^-8 M antibody)” and the binding result (FOLR3) was “no binding (tested: about 2.5 ug/ml antigen)”.

B4: muFR1-13 (antibody, mouse IgG2b, kappa, V domains shown)
VH: QVQLKESGPDLVAPSQSLSITCTVSGFSLSRYSVHWIRQPPGKGLEWLGMIWSGGNTDYNSVFKSRLNITKDNSKSQVFLKMNSLQTDDTAIYYCATFDGKVSWFAYWGQGTLVTVSA
VL: SIVMTQTPKFLLVSTGDRFTITCKASQSVSNDVLWYQQKPGQSPKLLIYYAYNRYSGVPDRFTGSGYGTDFTFTITTVQSEDLAVYFCQQDHSSPFTFGSGTKLEIKR
notes: Murine monoclonal purified from hybridoma supernatant; also called muFR1-13b (biotinylated); Biotinylated FR1-13
B4 was tested, and the binding result (FOLR2) was “no binding (tested: about 10^-8 M antibody)”, the “EC50 (read off the curve)” value [5] was about 0.005 nM and the Kd [6] was at least 1 nM. The binding result (FOLR3) was “no binding (tested: about 2.5 ug/ml antigen)”, the “EC50 (read off the curve)” value [7] was ~2 nM and ~3 nM and the Kd [8] was at most 3 nM. The “EC50 (read off the curve)” value [9] was ~1 nM and ~2 nM, the “signal to background ration” value [10] was 4.19 and the “IC50 (read off the curve)” value [11] was about 0.07 µg/mL.
